The results in this text go back to patent US10456446B2, “Use of human small leucine zipper protein in osteogenesis procedure” (Korea University Research and Business Foundation, priority 2013, dated 2019).

In one assay the target is T1, Runx2 (Homo sapiens, UniProt Q13950).
T1 construct: expressed in transfected cells; host or cells: 293T
Kind of assay: Runx2 transcriptional activity, luciferase reporter with 6 copies of Runx2 response elements in 293T cells. The format is cell-based. How it is done: Appropriately transfected cells were washed with cold PBS twice, and a reporter lysis buffer (Promega) was used and lysed in a culture dish. Luciferase analysis was performed using a luciferase analysis system (Promega Corporation, Madison, Wis.). A luciferase activity was recorded in Luminometer 20/20^n (Turner BioSystems, Sunnyvale, Calif.) according to instructions of the manufacturer. The luciferase activity was normalized to a β-galactosidase activity. For β-galactosidase analysis, CMV-β-galactosidase was transfected with luciferase reporter genes. All pieces of data were represented as mean±standard deviation of the results from at least three independent experiments.
Therefore, in order to characterize a potential role of sLZIP in the transcriptional activity of Runx2 by inhibiting the transcriptional activity of PPARγ2, the transcriptional activity of Runx2 was examined. For this purpose, 293T cells were temporarily transfected with Runx2 (0.5 μg), β-galactosidase (0.1 μg), 6 copies of Runx2 response elements (0.2 μg) and sLZIP at different contents (0.1 μg to 0.5 μg) (FIG. 7A). PPARγ2 (0.5 μg), β-galactosidase, Runx2, 6 copies of Runx2 response elements and sLZIP (0.5 μg) were expressed in the 293T cells (FIG. 7B). 293T cells were temporarily transfected with HDAC3 (0.5 μg), Runx2, β-galactosidase, 6 copies of Runx2 response elements and sLZIP at different contents (0.25 and 0.5 μg) (FIG. 7C). A promoter activity was measured by luciferase analysis. A luciferase activity was normalized to a β-galactosidase activity and represented as a relative activity (fold change). All experiments were repeated three times and data was represented as mean±standard deviation. A medium of primary MSCs and C3H10T1/2 cells of a human was exchanged with a differentiation medium in which 50 μg/mL of ascorbic acid, 10 mM of β-glycerol phosphate and 10% FBS were contained for 8 days (FIG. 7D). A medium of MEF cells was exchanged with a differentiation medium in which 50 μg/mL of ascorbic acid, 10 mM of β-glycerol phosphate and 10% FBS were contained for 8 days. […]
(In general: In a reporter assay the amount or activity of a reporter protein is the signal.)

The target in another assay is T2, PPARγ2 and HDAC3 (Homo sapiens, UniProt P37231).
T2 construct: expressed in transfected cells; host or cells: 293T
T2 sequence (P37231 1-505): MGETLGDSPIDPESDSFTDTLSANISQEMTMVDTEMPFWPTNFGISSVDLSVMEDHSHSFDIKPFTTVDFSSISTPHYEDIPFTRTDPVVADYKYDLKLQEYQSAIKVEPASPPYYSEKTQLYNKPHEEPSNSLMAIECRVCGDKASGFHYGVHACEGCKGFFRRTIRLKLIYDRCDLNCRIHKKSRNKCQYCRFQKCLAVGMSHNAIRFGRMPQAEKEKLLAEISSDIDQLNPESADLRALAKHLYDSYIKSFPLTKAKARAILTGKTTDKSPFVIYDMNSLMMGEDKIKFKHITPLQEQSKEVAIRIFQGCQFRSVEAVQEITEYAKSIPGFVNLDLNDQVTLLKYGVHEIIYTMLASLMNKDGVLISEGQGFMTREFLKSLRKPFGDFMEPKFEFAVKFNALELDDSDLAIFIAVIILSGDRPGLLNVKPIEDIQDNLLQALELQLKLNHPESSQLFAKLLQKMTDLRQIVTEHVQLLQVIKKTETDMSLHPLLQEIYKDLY
Nature of the assay: GST pull-down, effect on interaction between PPARγ2 and HDAC3. The note with it: in the presence of ligand (10 nM RZD, 24 hours). The format is binding. How it is done:
Therefore, in order to understand a regulation mechanism of sLZIP in the PPARγ2 transcriptional activity by binding to the FABP4 promoter region, an effect of sLZIP on the interaction between PPARγ2 and HDAC3 was examined. For this purpose, 293T cells were transfected with GST-HDAC3, Myc-PPARγ2 and Flag-sLZIP, and were treated or not treated with 10 nM of RZD for 24 hours. Cell lysates were subjected to GST pull-down analysis using a glutathione 4B bead, and a protein complex was analyzed in SDS-PAGE, and then immunoblotted with anti-GST, anti-Myc and anti-Flag antibodies (FIG. 6A). GST-HDAC3, GST-PPARγ2, Myc-PPARγ2, Flag-sLZIP and Ha-UB were expressed in the 293T cells, and the cells were treated with 10 nM of RZD for 24 hours. Cell lysates were subjected to GST pull-down analysis (FIG. 6B). GST-PPARγ2 and Flag-sLZIP were expressed in the 293T cells and treated with 10 nM of RZD for 24 hours. Cell lysates were subjected to GST pull-down analysis, and a protein complex was analyzed in SDS-PAGE, and then immunoblotted with anti-PGC1α, anti-GST and anti-Flag antibodies (FIG. 6C).

For a further assay, the system named is sLZIP TG mouse embryos. Nature of the assay: Cartilage development, alcian blue staining of sLZIP TG mouse embryos on E12.5. The format is in vivo. The note with it: E12.5, compared with wild type. From the text: In order to generate human sLZIP transgenic (TG) mice, sLZIP genes were cloned into a pCMV-flag expression vector. The sLZIP TG mice were generated by Macrogen, Inc (Seoul, Korea). Transgenic founders were mated with wild type C57BL/6 mice to produce F1 heterozygotes. F1-F4 generations were genetically screened for transgenes at an age of 2 weeks old. The following two primers were used to amplify genomic DNA in order to identify wild type and TG mice: 5′-GGACGATGATGACAAGGACT-3′ (SEQ ID NO: 25) and 5′-GTCAGAGGAGTACATGCTGCT-3′(SEQ ID NO: 26).
When a bone is initially developed during an embryo, cartilage is formed and hardened to a bone according to a so-called ossification (or osteogenesis) process. In order to examine whether sLZIP-mediated osteogenesis is associated with cartilage development, an effect of sLZIP in chondrocyte differentiation was examined. For this purpose, ATDC5 cells were temporarily transfected with sLZIP at different contents (0.1 μg to 0.5 μg). Total RNA was extracted from the cells, and an mRNA expression level of a chondrocyte marker was measured using RT-PCR analysis (FIG. 8A) and real-time PCR (FIG. 8B). GAPDH was used as an internal control group. An experiment was repeated three times. […] Total RNA was extracted from the mature osteoclasts, and an mRNA expression level of an osteoclast marker was measured using real-time PCR (FIG. 8D). […]

T1 sequence (Q13950 whole entry, species assumed): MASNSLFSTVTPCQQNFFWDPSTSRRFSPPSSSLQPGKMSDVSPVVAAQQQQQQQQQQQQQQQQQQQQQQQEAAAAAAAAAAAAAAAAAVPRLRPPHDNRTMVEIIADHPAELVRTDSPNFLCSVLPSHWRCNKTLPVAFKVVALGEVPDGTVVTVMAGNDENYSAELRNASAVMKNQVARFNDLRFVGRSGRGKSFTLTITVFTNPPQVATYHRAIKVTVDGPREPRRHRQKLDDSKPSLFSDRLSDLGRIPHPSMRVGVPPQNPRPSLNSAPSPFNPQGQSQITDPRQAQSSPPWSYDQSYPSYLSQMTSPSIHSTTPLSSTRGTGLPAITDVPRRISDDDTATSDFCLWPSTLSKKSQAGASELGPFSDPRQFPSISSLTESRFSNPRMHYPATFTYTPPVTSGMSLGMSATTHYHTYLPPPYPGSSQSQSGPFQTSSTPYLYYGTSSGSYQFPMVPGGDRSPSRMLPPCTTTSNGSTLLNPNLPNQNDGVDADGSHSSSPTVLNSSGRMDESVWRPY

B1: sLZIP: human small leucine-zipper protein, isoform of LZIP, 354 amino acids, no transmembrane domain, GenBank FJ263669, SEQ ID NO: 1 (protein, listed as Homo sapiens)
chain: MELELDAGDQDLLAFLLEESGDLGTAPDEAVRAPLDWALPLSEVPSDWEVDDLLCSLLSPPASLNILSSSNPCLVHHDHTYSLPRETVSMDLESESCRKEGTQMTPQHMEELAEQEIARLVLTDEEKSLLEKEGLILPETLPLTKTEEQILKRVRRKIRNKRSAQESRRKKKVYVGGLESRVLKYTAQNMELQNKVQLLEEQNLSLLDQLRKLQAMVIEISNKTSSSSMYSSDTRGSLPAEHGVLSRQLRALPSEDPYQLELPALQSEVPKDSTHQWLDGSDCVLQAPGNTSCLLHYMPQAPSAEPPLEWPFPDLFSEPLCRGPILPLQANLTRKGGWLPTGSPSVILQDRYSG
Turning to B1, the “transcriptional activity of Runx2” value was “restored the transcriptional activity of Runx2” with Runx2 (HDAC3 0.5 μg co-expressed, sLZIP 0.25 and 0.5 μg); “restored the activity of Runx2” with Runx2 (PPARγ2 0.5 μg co-expressed, sLZIP 0.5 μg). For the same molecule, the “increase of the transcriptional activity of Runx2 (factor)” value with Runx2 (sLZIP 0.1 μg to 0.5 μg) is listed as “about 4”. Further, in the assay with PPARγ2 and HDAC3, the “interaction between PPARγ2 and HDAC3” value is “enhanced interaction between PPARγ2 and HDAC3”. In the assay with sLZIP TG mouse embryos, the “cartilage development of leg and tail” value is on record as “no difference”.
